Series [1] concerns DBL1alpha-His (PfEMP1 Duffy binding-like domain 1alpha, strain FCR3S1.2) (Plasmodium falciparum). In words: pulldown. To be noted: 2'-F on all pyrimidines (C and U) [positions count without the 20-nt 5-prime fixed region], 40 nM RNA, 350-400 nM protein, Ni-NTA beads, PBSM, yeast RNA, 37 C, RNA assayed as 90 nt with 2x20 nt flanks.
The test system of series [2] is GST-DBL1alpha (PfEMP1 DBL1alpha) (Plasmodium falciparum). In words: competition. To be noted: 2'-F on all pyrimidines (C and U) [positions count without the 20-nt 5-prime fixed region], 30-fold molar excess unlabelled RNA.
Series [3] relates to PfEMP1 on FCR3S1.2-infected erythrocytes (Plasmodium falciparum). Nature of the series: cell_activity. The settings on record: 2'-F on all pyrimidines (C and U) [positions count without the 20-nt 5-prime fixed region]; rosette rate about 35% of control at 258 nM; 1 mM MgCl2.
Series [4] concerns the target BSA (UniProt P02769 P02769:25-607). In words: EMSA; 10 ug BSA negative control. To be noted: label: 32P; complex secondary structure predicted by mfold. Here is the method: To study RNA/DBL1α^His interaction in solution a number of EMSA experiments were conducted. The protein used for these experiments was freshly eluted from the Ni-NTA beads to avoid long storage and freezing in solution to prevent precipitation of DBL1α^His The RNA was internally labelled with ³²P-ATP and migration after incubation with DBL1α^His or BSA was analysed on 10% native polyacrylamide gel. The upper band (177 nucleotide long RNA) seen in FIG. 4 is an incorrect product of the T7 transcription that is derived from a longer transcription template. This template is a product generated in the previous PCR reaction (binding of PCR primer to en external T7 site in the TOPO-vector). […] Throughout the EMSA experiments conducted, no real band shift was observed (RNA molecule bound to protein with slower migration).
FIG. 5. Mobility shift assay of selected clone e05. ˜30 ng internal ³²P-[αATP] labelled RNA was incubated with ˜300-400 ng DBL1α^His for 10 min. and loaded on 10% TBE-buffered PAA gel (+) together with negative control (−) incubated in the presence of 10 μg BSA.

Chain of BSA (P02769 25-607, one chain of several): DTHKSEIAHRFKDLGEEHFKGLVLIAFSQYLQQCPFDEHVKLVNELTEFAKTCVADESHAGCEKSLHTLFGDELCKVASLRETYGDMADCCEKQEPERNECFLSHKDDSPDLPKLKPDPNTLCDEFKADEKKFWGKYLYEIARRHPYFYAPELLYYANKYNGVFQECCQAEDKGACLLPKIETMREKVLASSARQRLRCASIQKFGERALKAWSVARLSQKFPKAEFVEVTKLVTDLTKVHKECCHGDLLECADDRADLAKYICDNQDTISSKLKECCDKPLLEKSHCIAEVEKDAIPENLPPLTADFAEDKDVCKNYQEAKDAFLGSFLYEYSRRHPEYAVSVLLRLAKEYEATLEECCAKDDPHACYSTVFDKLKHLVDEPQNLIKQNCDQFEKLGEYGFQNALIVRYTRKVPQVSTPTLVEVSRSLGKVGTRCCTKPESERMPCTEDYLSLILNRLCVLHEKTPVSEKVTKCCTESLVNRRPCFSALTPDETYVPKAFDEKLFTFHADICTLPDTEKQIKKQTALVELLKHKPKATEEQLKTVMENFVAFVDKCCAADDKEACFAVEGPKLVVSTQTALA

Consider “GGGAAUUCGAGCUCGGUACCCUUCGAACGGCCCUGGUUGUUGGUUUUAAUUCAUUUAUCCGCGUGGUCACGGUCGUAGCAAGCUCUGCAGUCG [e05]”, for which the binding signal (% RNA recovery) in series [1] (clone also listed as SEQ 6/12) is 70. Besides, in series [2], the binding signal (% decrease of labelled RNA recovery) is 40. The molecule further returned an activity (nM (complete rosette disruption)) in series [3] of 387.

“GGGAAUUCGAGCUCGGUACCUCAUGUGCCAGUGUUUGAAAAAACGCGUUGAUUGCUGGUGUGGUGAGCUAGUCGUAGCAAGCUCUGCAGUCG” had a binding signal (% RNA recovery) in series [1] (clone also listed as SEQ 5/11) of 70. In addition, in series [2], the binding signal (% decrease of labelled RNA recovery) stood at 40. Besides, the activity (nM (complete rosette disruption)) in series [3] stood at 387.

As to “GGGAAUUCGAGCUCGGUACCUGCCAACCUUCGAUGCAAGAUAAUACUUUUGAUGGUGUAGUCGUAUUGUUCGUAGCAAGCUCUGCAGUCG [d12]”, the binding signal (% RNA recovery) in series [1] (clone also listed as SEQ 4/10) was 70. In series [2] (60% decrease at 45-fold, no decrease with 30-fold e02 or pool 0), this molecule registered a binding signal (% decrease of labelled RNA recovery) of 40. Moreover, the activity (nM (complete rosette disruption)) in series [3] was found to be 387.

B1: e05 (ssRNA)
RNA: GGGAAUUCGAGCUCGGUACCCUUCGAACGGCCCUGGUUGUUGGUUUUAAUUCAUUUAUCCGCGUGGUCACGGUCGUAGCAAGCUCUGCAGUCG
modifications: 2'-F on all pyrimidines (C and U) [positions count without the 20-nt 5-prime fixed region]
In the case of B1, the binding result in series [4] is “no binding”.

(Values after patent US20110003886, “SELECTION OF RNA APTAMERS AS ANTI-MALARIA AGENTS” (FORSKARPATENT I SYD AB, published 2011).)
